Reference: patent US20070092940A1

Molecular target: rabbit albumin (rabbit) (UniProt P49065)
Experiment: BIAcore kinetic analysis

Chain of rabbit albumin (rabbit) (P49065 25-608 limits assumed): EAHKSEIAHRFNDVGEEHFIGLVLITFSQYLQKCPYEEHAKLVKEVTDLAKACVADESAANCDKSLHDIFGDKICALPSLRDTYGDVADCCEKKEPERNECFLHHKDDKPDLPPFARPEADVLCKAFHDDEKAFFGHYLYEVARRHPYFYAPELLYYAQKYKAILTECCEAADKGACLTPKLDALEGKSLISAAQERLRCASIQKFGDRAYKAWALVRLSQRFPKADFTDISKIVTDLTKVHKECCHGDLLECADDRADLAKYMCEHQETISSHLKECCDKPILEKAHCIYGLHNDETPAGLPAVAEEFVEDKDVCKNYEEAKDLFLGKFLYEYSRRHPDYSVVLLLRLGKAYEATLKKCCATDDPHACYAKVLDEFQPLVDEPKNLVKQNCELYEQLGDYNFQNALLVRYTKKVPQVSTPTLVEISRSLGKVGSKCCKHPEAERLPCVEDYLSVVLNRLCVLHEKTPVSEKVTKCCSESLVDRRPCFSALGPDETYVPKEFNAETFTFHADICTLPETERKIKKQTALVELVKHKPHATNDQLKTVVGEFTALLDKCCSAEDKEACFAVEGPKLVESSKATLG

Kd: 124 nM
Substance: ABP-hu4D5Fabv8 wild type
